Values of other authors as cited in paper PMC5319824.
Where “and” joins values, the source holds several entries; their conditions need not be identical. Identical values can stand only once. Like-named read-outs stand apart in the source and are kept apart here.

Assays:
[1] = biological target: FtsZ (Escherichia coli) (UniProt P0A9A6)
[2] = biological target: FtsZ (Escherichia coli) (UniProt P0A9A6); remark: listed apart in the source
[3] = biological target: FtsZ (Escherichia coli) (UniProt P0A9A6); remark: listed apart in the source

Chain of FtsZ (Escherichia coli) (P0A9A6 whole entry): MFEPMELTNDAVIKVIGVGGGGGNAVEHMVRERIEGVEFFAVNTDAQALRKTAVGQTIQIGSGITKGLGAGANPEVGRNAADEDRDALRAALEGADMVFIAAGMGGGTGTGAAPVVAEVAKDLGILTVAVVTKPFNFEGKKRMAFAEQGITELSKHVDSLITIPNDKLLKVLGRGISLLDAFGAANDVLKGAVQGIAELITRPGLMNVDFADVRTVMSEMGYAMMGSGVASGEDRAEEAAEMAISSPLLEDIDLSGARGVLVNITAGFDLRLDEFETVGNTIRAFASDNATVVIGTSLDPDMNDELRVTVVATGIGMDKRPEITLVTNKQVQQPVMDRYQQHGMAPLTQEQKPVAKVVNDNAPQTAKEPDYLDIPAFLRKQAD
Chain of FtsA (P0ABH0 whole entry): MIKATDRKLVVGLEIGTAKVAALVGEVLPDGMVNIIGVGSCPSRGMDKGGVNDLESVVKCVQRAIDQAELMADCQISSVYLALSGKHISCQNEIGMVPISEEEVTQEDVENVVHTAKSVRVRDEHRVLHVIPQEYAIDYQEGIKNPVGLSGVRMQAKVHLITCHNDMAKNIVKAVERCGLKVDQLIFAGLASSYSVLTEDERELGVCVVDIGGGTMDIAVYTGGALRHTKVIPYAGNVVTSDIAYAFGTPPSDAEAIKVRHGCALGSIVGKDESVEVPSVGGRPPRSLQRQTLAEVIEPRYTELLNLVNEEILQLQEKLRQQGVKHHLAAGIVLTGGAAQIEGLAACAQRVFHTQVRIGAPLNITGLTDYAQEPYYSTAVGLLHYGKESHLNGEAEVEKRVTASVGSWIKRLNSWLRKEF

Substance: ZipA (from UniProt P77173)
- Kd [1]: 30 µM and 140 µM
- Kd [2]: 400 nM

Substance: FtsA (from UniProt P0ABH0)
- Kd [3]: > 40 µM
